Results reported in patent publication US10772928B2, “Modulation and detection of a neuronal alternative splicing regulatory network for treatment and diagnosis of neurological disorders” (The Governing Council of the University of Toronto, priority 2014, dated 2020).

T1: nSR100 (Mus musculus, UniProt Q8BKA3)
T1 construct: host or cells: mouse N2A cells
T1 sequence (Q8BKA3 1-608): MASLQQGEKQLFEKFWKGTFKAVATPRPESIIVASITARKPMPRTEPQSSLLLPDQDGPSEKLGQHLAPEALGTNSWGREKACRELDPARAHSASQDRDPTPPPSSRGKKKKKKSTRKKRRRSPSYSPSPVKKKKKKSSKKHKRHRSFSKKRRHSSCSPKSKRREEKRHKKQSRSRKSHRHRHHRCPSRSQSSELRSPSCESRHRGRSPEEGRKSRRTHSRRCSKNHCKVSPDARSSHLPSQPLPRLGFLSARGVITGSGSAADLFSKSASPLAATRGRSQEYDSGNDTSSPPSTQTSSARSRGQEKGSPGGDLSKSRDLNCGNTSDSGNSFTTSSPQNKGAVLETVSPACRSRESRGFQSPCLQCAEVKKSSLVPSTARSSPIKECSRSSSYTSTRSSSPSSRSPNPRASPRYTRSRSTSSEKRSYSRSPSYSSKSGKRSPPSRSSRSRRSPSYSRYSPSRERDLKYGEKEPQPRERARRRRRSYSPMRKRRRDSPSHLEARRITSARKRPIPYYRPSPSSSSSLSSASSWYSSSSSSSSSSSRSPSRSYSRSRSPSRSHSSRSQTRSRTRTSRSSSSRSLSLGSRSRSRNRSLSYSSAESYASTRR

B1: Dhx8 (protein, UniProt A2A4P0 1-1244, looked up)
ATP-dependent RNA helicase …: MAVAVAAAGVLMGSEPGPAEELAKLEYLSLVSKVCTELDNHLGINDKDLAEFVISLAEKNTTFDTFKASLVKNGAEFTDSLISNLLRLIQTMRPPAKPSTSKDPVVKPKTEKEKLRELFPVLCQPDNPSARTMLDEEDVKVAVDVLKELEALMPSAAGQEKQRDPEHRDRTKKKKRSRSRDRDRDRDRDRDRDRDRDRDRDKDRERDRDRERDRERDRERDHKRRHRSRSRSHSRTRERTKGKSRYRSRSRSQSPFKDRKDREKYGERNLDRWRDKHVDRPPPEEPAIGDIYNGKVTSIMQFGCFVQLEGLRKRWEGLVHISELRREGRVANVADVVSKGQRVKVKVLSFTGTKTSLSMKDVDQETGEDLNPNRRRNLVGETNEETSMRNPDRPTHLSLVSAPEVEDDSLERKRLTRISDPEKWEIKQMIAANVLSKEEFPDFDEETGILPKVDDEEDEDLEIELVEEEPPFLRGHTKQSMDMSPIKIVKNPDGSLSQAAMMQSALAKERRELKQAQREAEMDSIPMGLNKHWVDPLPDAEGRQIAANMRGIGMMPNDIPEWKKHAFGGNKASYGKKTQMSILEQRESLPIYKLKEQLVQAVHDNQILIVIGETGSGKTTQITQYLAEAGYTSRGKIGCTQPRRVAAMSVAKRVSEEFGCCLGQEVGYTIRFEDCTSPETVIKYMTDGMLLRECLIDPDLTQYAIIMLDEAHERTIHTDVLFGLLKKTVQKRQDMKLIVTSATLDAVKFSQYFYEAPIFTIPGRTYPVEILYTKEPETDYLDASLITVMQIHLTEPPGDILVFLTGQEEIDTACEILYERMKSLGPDVPELIILPVYSALPSEMQTRIFDPAPPGSRKVVIATNIAETSLTIDGIYYVVDPGFVKQKVYNSKTGIDQLVVTPISQAQAKQRAGRAGRTGPGKCYRLYTERAYRDEMLTTNVPEIQRTNLASTVLSLKAMGINDLLSFDFMDAPPMETLITAMEQLYTLGALDDEGLLTRLGRRMAEFPLEPMLCKMLIMSVHLGCSEEMLTIVSMLSVQNVFYRPKDKQALADQKKAKFHQTEGDHLTLLAVYNSWKNNKFSNPWCYENFIQARSLRRAQDIRKQMLGIMDRHKLDVVSCGKSTVRVQKAICSGFFRNAAKKDPQEGYRTLIDQQVVYIHPSSALFNRQPEWVVYHELVLTTKEYMREVTTIDPRWLVEFAPAFFKVSDPTKLSKQKKQQRLEPLYNRYEEPNAWRISRAFRRR
B2: Fip1l1 (protein, UniProt Q9D824 1-581, looked up)
Pre-mRNA 3'-end-processing …: MSAGEVERLVELSGGTGGDEEEEWLYGGPWDVHVHSDLAKDLDENEVERPEEENASANPPSGIEEEAAENGVAKPKVTETEDDSDSDSDDDEDDVHVTIGDIKTGAPQYGSYGTAPVNLNIKAGGRVYGNTGTKVKGVDLDAPGSINGVPLLEVDLDSFEDKPWRKPGADLSDYFNYGFNEDTWKAYCEKQKRIRMGLEVIPVTSTTNKITVQQGRTGNSEKEAALPSTKAEFTSPPSLFKTGLPPSRNSTSSQSQTSTASRKASSSVGKWQDRYGRAESPDLRRLPGAIDVIGQTITISRVEGRRRANENSNIQVLSDRSATEVDNNFSKPPPFFPPGAPPTHLPPPPFLPPPPTVSTAPPLIPPPGIPITVPPPGFPPPPGAPPPSLIPTIESGHSSGYDSRSARAFPYGNVAFPHLTSSAPSWPSLVDTTKQWDYYARREKDRDRDRERDRDRERERDRDRERERTRERERERDHSPTPSVFNSDEERYRYREYAERGYERHRASREKEERHRERRHREKEETRHKSSRSNSRRRHESEEGDSHRRHKHKKSKRSKEGKEAGSEPVPEQESTEAAPAE
B3: Sf3a3 (protein, UniProt Q9D554 1-501, looked up)
Splicing factor 3A subunit 3: METILEQQRRYHEEKERLMDVMAKEMLTKKSTLRDQINSDHRTRAMQDRYMEVSGNLRDLYDDKDGLRKEELNAISGPNEFAEFYNRLKQIKEFHRKHPNEICVPMSVEFEELLKARENPSEEAQNLVEFTDEEGYGRYLDLHDCYLKYINLKASEKLDYITYLSIFDQLFDIPKERKNAEYKRYLEMLLEYLQDYTDRVKPLQDQNELFGKIQTDFEKKWDNGTFPGWPKETSSALTHAGAHLDLSAFSSWEELASLGLDRLKSALLALGLKCGGTLEERAQRLFSTKGKSLESLDTSLFAKNPKSKGTKRDTERNKDIAFLEAQIYEYVEILGEQRQLTHENVQRKQARTGEEREEEEEEQISESESEDEENEIIYNPKNLPLGWDGKPIPYWLYKLHGLNINYNCEICGNYTYRGPKAFQRHFAEWRHAHGMRCLGIPNTAHFANVTQIEDAVSLWAKLKLQKASERWQPDTEEEYEDSSGNVVNKKTYEDLKRQGLL
B4: Eif4a3 (protein, UniProt Q91VC3 1-411, looked up)
Eukaryotic initiation factor …: MAANATMATSGSARKRLLKEEDMTKVEFETSEEVDVTPTFDTMGLREDLLRGIYAYGFEKPSAIQQRAIKQIIKGRDVIAQSQSGTGKTATFSVSVLQCLDIQVRETQALILAPTRELAVQIQKGLLALGDYMNVQCHACIGGTNVGEDIRKLDYGQHVVAGTPGRVFDMIRRRSLRTRAIKMLVLDEADEMLNKGFKEQIYDVYRYLPPATQVVLISATLPHEILEMTNKFMTDPIRILVKRDELTLEGIKQFFVAVEREEWKFDTLCDLYDTLTITQAVIFCNTKRKVDWLTEKMREANFTVSSMHGDMPQKERESIMKEFRSGASRVLISTDVWARGLDVPQVSLIINYDLPNNRELYIHRIGRSGRYGRKGVAINFVKNDDIRILRDIEQYYSTQIDEMPMNVADLI

Tests used:
nSR100 [1] = target: T1, nSR100; assay: AP-MS nSR100 interaction partners from mouse N2A cells (Table 5); format: binding; conditions: for AvgP (average of the SAINT scores) / MaxP (maximal SAINT score): bait Srrm4; for FoldChange between the prey Avg spectra of the bait and control purifications: bait Srrm4, 0.1 added to prevent division by 0; for AvgSpec (average number of spectra per replicate): bait Srrm4, 2 replicates; for Spectra (number of spectra for the prey in the purification of the bait): AP-MS; for SpecSum: bait Srrm4, sum of spectra over 2 replicates
Source text: By applying affinity purification coupled to mass-spectrometry (AP-MS), several interaction nSR100 partner proteins were detected that provide insight into mechanisms of post-translational regulation of nSR100 levels.

nSR100 [2] = target: T1, nSR100; assay: Regulation by nSR100: microexon inclusion level (PSI) by RNA-Seq in mouse N2A cells depleted of nSR100 (Table 2); format: cell-based; conditions: YES/NO
Source text: A-H) Percent of neural-regulated exons within each length class that is affected at 15<|ΔPSI|<25 and |ΔPSI|>25 by (A) RBFOX1 knockdown in human neural precursor cells; (B) MBNL1 and MBNL2 double knockdown in human HeLa cells; (C) ESRP1 knockdown in human PNT2 cells; (D) nSR100/Srrm4 knockdown in mouse N2A cells; (E) Ptbp1 knockdown in mouse N2A cells; (F) Ptbp2 knockout in mouse cortex (P1 stage); (G) Ptbp2 knockout in mouse embryonic brain (18.5 days post-conception); and (H) Rbfox1 knockout. p values correspond to two-sided proportion tests of regulated versus non-regulated events. I) Expression of nSR100 in different isolated brain cell types (Zhang et al., 2014). Error bars indicate SEM. […]
An RNA-Seq analysis pipeline was developed to detect and quantify all AS event classes involving all hypothetically possible splice junctions formed by the usage of annotated and unannotated splice sites, including those that demarcate microexons. […]
A multi-module analysis pipeline was developed that uses RNA-Seq, expressed sequence tag (EST) and cDNA data, as well as gene annotations and evolutionary conservation, to assemble libraries of exon-exon-junctions (EEJs) for subsequent read alignment to detect and quantify AS events in RNA-Seq data. […] Alt3 or Alt5 events were quantified based on the fraction of reads supporting the usage of each alternative splice site. […]

[3] = bait Srrm4, biological replicate 1 (first number of the cell)
[4] = bait Srrm4, biological replicate 2 (second number of the cell)

Row | Molecule | AvgP (average of the SAINT scores) (nSR100 [1]) | MaxP (maximal SAINT score) (nSR100 [1]) | FoldChange between the prey Avg spectra of the bait and control purifications (nSR100 [1]) | AvgSpec (average number of spectra per replicate) (nSR100 [1]) | Spectra (number of spectra for the prey in the purification of the bait) (nSR100 [1]; [3]) | Spectra (number of spectra for the prey in the purification of the bait) (nSR100 [1]; [4]) | SpecSum (nSR100 [1]) | Regulation by nSR100 (nSR100 [2])
1 | B1 | 0.99 | 1 | 7.33 | 11 | 8 | 14 | 22 | 
2 | B2 | 1 | 1 | 90 | 9 | 8 | 10 | 18 | NO (regulation may occur but does not meet a miminal threshold change of PSI≥10)
3 | B3 | 0.99 | 0.99 | 10.5 | 10.5 | 11 | 10 | 21 | 
4 | B4 | 0.99 | 1 | 3.82 | 21 | 18 | 24 | 42 | 
